T1: human CD123-Fc-His fusion protein (internal source) (human, UniProt P26951 19-305)
T1 construct: not shown: Fc and His tag
T1 sequence (looked up): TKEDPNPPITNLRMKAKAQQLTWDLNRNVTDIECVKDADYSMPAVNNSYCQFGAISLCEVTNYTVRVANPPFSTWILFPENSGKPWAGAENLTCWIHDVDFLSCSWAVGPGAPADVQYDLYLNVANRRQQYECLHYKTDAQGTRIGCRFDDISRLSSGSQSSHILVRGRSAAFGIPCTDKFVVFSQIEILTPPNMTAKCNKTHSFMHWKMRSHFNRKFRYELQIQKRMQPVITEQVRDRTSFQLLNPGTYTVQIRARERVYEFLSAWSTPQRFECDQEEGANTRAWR


Tests used:
[1] = target: T1, human CD123-Fc-His fusion protein …; experiment: SPR, Biacore 8K; CD123-Fc-His captured by anti-His, antibody as analyte, 1:1 Langmuir fit
Procedure: Binding of antigens to the antibody constructs was measured using surface plasmon resonance (SPR) with a BIAcore 8K instrument (GE Healthcare) with HBS-EP+ buffer (GE Healthcare). For binding kinetics and affinity determination human CD3εδ-Fc-His and human CD123-Fc-His fusion proteins (both from internal source) were used as antigens. The anti-His capture antibody (His capture kit, GE Life Sciences) was immobilized via primary amine groups (11000 RU) on a research grade CM5 chip (GE Life Sciences) using standard procedures. Antigens were captured by the anti-His capture chip surface at a flow rate of 10 μL/min for 90 sec to reach antibody binding levels between 10 and 30 RU. […] Dissociation was measured at 30 μL/min by injection of HBS-EP+ buffer for 1200 sec. The chip surface was regenerated by inject of regeneration buffer (His capture kit, GE Life Sciences). Sensorgrams were double referenced with a blank chip surface and H BS-EP+ buffer blanks. Data were fitted with a 1:1 Langmuir binding model for determination of kinetic and affinity constants ka, kd and KD using Biacore 8K Evaluation software v1.11.7442 (GE Healthcare).

[2] = target: T2, human IL13 (IL012, Millipore) (human, UniProt P35225 35-146); experiment: SPR, BIAcore 3000; antibody captured by anti-human Fc, antigen as analyte
Procedure: (§1) Surface plasmon resonance (SPR) was used to assess the binding of antigens to antibody. Binding of antigens to the antibody constructs was measured using surface plasmon resonance (SPR) with a BIAcore 3000 instrument (GE Healthcare) with HBS-EP buffer (GE Healthcare). Human IL4 (IL004, Millipore) and human IL13 (IL012, Millipore), human HER2 (1129-ER, R&D Systems), human TNFa (H8916, SIGMA Aldrich), human CTLA4 (CT4-H5229, ACRO Biosystems), human PD-1 (8986-PD, R&D Systems), and human IL6Ra (227-SR/CF, R&D Systems) were used as antigens. The anti-human Fc capture antibody (human antibody capture kit, GE Life Sciences) was immobilized via primary amine groups (11000 RU) on a research grade CM5 chip (GE Life Sciences) using standard procedures. […] Binding tests with HER2 was performed by capture of the antigen with the anti-human Fc antibody. The tested antibody constructs were used as analytes and injected at 100 nM concentration for 240 sec with a dissociation time of 300 sec at a flow rate of 30 μL/min. Binding kinetics measurements were done using the captured antibodies with injects of two-fold serial dilutions of the analytes of 3 nM to 100 nM. […] Chip surfaces were regenerated with 2 min injects of the regeneration buffer provided with the capture kit. Sensorgrams were double referenced with a blank chip surface and HBS-EP buffer blanks. Data analysis was performed using the BIAevaluation software v4.1.

[3] = target: T2, human IL13 (IL012, Millipore); experiment: SPR, BIAcore 3000; antibody captured by anti-human Fc, antigen as analyte; column head says nM, but kd/ka gives M
Procedure: as §1

[4] = target: T3, human HER2 (1129-ER, R&D Systems) (human, UniProt P04626 23-652); experiment: SPR; HER2 captured with the anti-human Fc antibody, antibody constructs as analytes (method in paragraph 368); FIG. 5A-5B
T3 construct: also called Receptor tyrosine-protein kinase erbB-2
Procedure: as §1

T2 sequence (P35225 35-146 limits assumed): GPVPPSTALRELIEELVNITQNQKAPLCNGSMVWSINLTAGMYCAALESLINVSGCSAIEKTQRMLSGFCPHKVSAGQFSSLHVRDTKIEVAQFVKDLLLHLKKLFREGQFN

Kd [1] [pM] | binding result [4] | Binder | other results
231 |  | anti-TNP × anti-CD123 Negative control Wild Type (ID 42) (bispecific antibody) light 1: DVVMTQSPLSLPVTLGQPASISCRSSQSLVHSIGNTYLHWYQQRPGQSPRLLIYKVSNRFSGVPDRFSGSGSGTDFTLKISRVEAEDVGVYYCSQSTHVPFTFGQGTKLEIKRTVAAPSVFIFPPSDEQLKSGTASVVCLLNNFYPREAKVQWKVDNALQSGNSQESVTEQDSKDSTYSLSSTLTLSKADYEKHKVYACEVTHQGLSSPVTKSFNRGEC heavy 1: not shown heavy 2: EVQLQQSGPELVKPGASVKMSCKASGYTFTDYYMKWVKQSHGKSLEWIGDIIPSNGATFYNQKFKGKATLTVDRSSSTAYMHLNSLTSEDSAVYYCTRSHLLRASWFAYWGQGTLVTVSAASTKGPSVFPLAPSSKSTSGGTAALGCLVKDYFPEPVTVSWNSGALTSGVHTFPAVLQSSGLYSLSSVVTVPSSSLGTQTYICNVNHKPSNTKVDKKVEPKSCDKTHTCPPCPAPEAAGGPSVFLFPPKPKDTLMISRTPEVTCVVVDVSHEDPEVKFNWYVDGVEVHNAKTKPREEQYNSTYRVVSVLTVLHQDWLNGKEYKCKVSNKALPAPIEKTISKAKGQPREPQVCTLPPSRDELTKNQVSLSCAVKGFYPSDIAVEWESNGQPENNYKTTPPVLDSDGSFFLVSKLTVDKSRWQQGNVFSCSVMHEALHNRFTQKSLSLSPG light 2: DFVMTQSPSSLTVTAGEKVTMSCKSSQSLLNSGNQKNYLTWYLQKPGQPPKLLIYWASTRESGVPDRFTGSGSGTDFTLTISSVQAEDLAVYYCQNDYSYPYTFGGGTKLEIKRTVAAPSVFIFPPSDEQLKSGTASVVCLLNNFYPREAKVQWKVDNALQSGNSQESVTEQDSKDSTYSLSSTLTLSKADYEKHKVYACEVTHQGLSSPVTKSFNRGEC | 
287 |  | anti-TNP-dsTrasKO2 × anti-CD123 Negative control (ID 44) (bispecific antibody, human IgG1, kappa, L234A L235A) light 1: not shown heavy 1: not shown heavy 2: EVQLQQSGPELVKPGASVKMSCKASGYTFTDYYMKWVKQSHGKSLEWIGDIIPSNGATFYNQKFKGKATLTVDRSSSTAYMHLNSLTSEDSAVYYCTRSHLLRASWFAYWGQGTLVTVSAASTKGPSVFPLAPSSKSTSGGTAALGCLVKDYFPEPVTVSWNSGALTSGVHTFPAVLQSSGLYSLSSVVTVPSSSLGTQTYICNVNHKPSNTKVDKKVEPKSCDKTHTCPPCPAPEAAGGPSVFLFPPKPKDTLMISRTPEVTCVVVDVSHEDPEVKFNWYVDGVEVHNAKTKPREEQYNSTYRVVSVLTVLHQDWLNGKEYKCKVSNKALPAPIEKTISKAKGQPREPQVCTLPPSRDELTKNQVSLSCAVKGFYPSDIAVEWESNGQPENNYKTTPPVLDSDGSFFLVSKLTVDKSRWQQGNVFSCSVMHEALHNRFTQKSLSLSPG light 2: DFVMTQSPSSLTVTAGEKVTMSCKSSQSLLNSGNQKNYLTWYLQKPGQPPKLLIYWASTRESGVPDRFTGSGSGTDFTLTISSVQAEDLAVYYCQNDYSYPYTFGGGTKLEIKRTVAAPSVFIFPPSDEQLKSGTASVVCLLNNFYPREAKVQWKVDNALQSGNSQESVTEQDSKDSTYSLSSTLTLSKADYEKHKVYACEVTHQGLSSPVTKSFNRGEC | 
386 |  | anti-CD3ε × anti-CD123-dsTrasKO2 (ID 37, alternative anti-CD3ε binding domain) (bispecific antibody, also called anti-CD3ε × CD123-dsTrasKO2) light 1: DIVMTQTPLSLSVTPGQPASISCKSSQSLVHENLQTYLSWYLQKPGQSPQSLIYKVSNRFSGVPDRFSGSGSGTDFTLKISRVEAEDVGVYYCGQGTQYPFTFGSGTKVEIKRTVAAPSVFIFPPSDEQLKSGTASVVCLLNNFYPREAKVQWKVDNALQSGNSQESVTEQDSKDSTYSLSSTLTLSKADYEKHKVYACEVTHQGLSSPVTKSFNRGEC heavy 1: not shown heavy 2: EVQLQQSGPELVKPGASVKMSCKASGYTFTDYYMKWVKQSHGKSLEWIGDIIPSNGATFYNQKFKGKATLTVDRSSSTAYMHLNSLTSEDSAVYYCTRSHLLRASWFAYWGQGTLVTVSAGGGGSGGGGSEVQLVESGGGLVQPGGSLRLSCAASGFNIKDTYIHWVRQAPGKCLEWVAEIYPTNGYTEYADSVKGRFTISADTSKNTAYLQMNSLRAEDTAVYYCSRWGGDGFYAMDYWGQGTLVTVSSDKTHTCPPCPAPEAAGGPSVFLFPPKPKDTLMISRTPEVTCVVVDVSHEDPEVKFNWYVDGVEVHNAKTKPREEQYNSTYRVVSVLTVLHQDWLNGKEYKCKVSNKALPAPIEKTISKAKGQPREPQVCTLPPSRDELTKNQVSLSCAVKGFYPSDIAVEWESNGQPENNYKTTPPVLDSDGSFFLVSKLTVDKSRWQQGNVFSCSVMHEALHNRFTQKSLSLSPG light 2: not shown | 
546 |  | anti-TNP × anti-CD123-dsTrasKO2 Negative control (ID 43) (bispecific antibody, human IgG1, kappa, L234A L235A) light 1: DVVMTQSPLSLPVTLGQPASISCRSSQSLVHSIGNTYLHWYQQRPGQSPRLLIYKVSNRFSGVPDRFSGSGSGTDFTLKISRVEAEDVGVYYCSQSTHVPFTFGQGTKLEIKRTVAAPSVFIFPPSDEQLKSGTASVVCLLNNFYPREAKVQWKVDNALQSGNSQESVTEQDSKDSTYSLSSTLTLSKADYEKHKVYACEVTHQGLSSPVTKSFNRGEC heavy 1: not shown heavy 2: EVQLQQSGPELVKPGASVKMSCKASGYTFTDYYMKWVKQSHGKSLEWIGDIIPSNGATFYNQKFKGKATLTVDRSSSTAYMHLNSLTSEDSAVYYCTRSHLLRASWFAYWGQGTLVTVSAGGGGSGGGGSEVQLVESGGGLVQPGGSLRLSCAASGFNIKDTYIHWVRQAPGKCLEWVAEIYPTNGYTEYADSVKGRFTISADTSKNTAYLQMNSLRAEDTAVYYCSRWGGDGFYAMDYWGQGTLVTVSSDKTHTCPPCPAPEAAGGPSVFLFPPKPKDTLMISRTPEVTCVVVDVSHEDPEVKFNWYVDGVEVHNAKTKPREEQYNSTYRVVSVLTVLHQDWLNGKEYKCKVSNKALPAPIEKTISKAKGQPREPQVCTLPPSRDELTKNQVSLSCAVKGFYPSDIAVEWESNGQPENNYKTTPPVLDSDGSFFLVSKLTVDKSRWQQGNVFSCSVMHEALHNRFTQKSLSLSPG light 2: not shown | 
 |  | IL13 mAb (ID 3, anti-IL13-VL3-IGKC / anti-IL13-VH2-IGHG1) (antibody, human IgG1, kappa, V domains shown, also called IL13mAb-huIgG1) VH: EVQLKESGPGLVAPGGSLSITCTVSGFSLTDSSINWVRQPPGKGLEWLGMIWGDGRIDYADALKSRLSISKDSSKSQVFLEMTSLRTDDTATYYCARDGYFPYAMDFWGQGTSVTVSS VL: DIVLTQSPASLAVSLGQRATISCRASESVDSYGQSYMHWYQQKAGQPPKLLIYLASNLESGVPARFSGSGSRTDFTLTIDPVQAEDAATYYCQQNAEDSRTFGGGTKLEIKR | koff [2]: 3.46e-05 s⁻¹; kon [2]: 1.28e+06 M⁻¹ s⁻¹; Kd [3]: 26.9 pM
 | no binding (tested: 100 nM) | dsTrasKO variant 1 (dsTrasKO1) (antibody, V domains shown, also called dsTrastuKO variant 1; Variant1 (TrasKO1) with VH44C/VL100C disulfide) VH: EVQLVESGGGLVQPGGSLRLSCAASGFNIKDTAIHWVRQAPGKCLEWVAEIYPTNGYTEYADSVKGRFTISADTSKNTAYLQMNSLRAEDTAVYYCSRWGGDGFAAMDYWGQGTLVTVSS VL: not shown | 
 | no binding (tested: 100 nM) | dsTrasKO variant 2 (dsTrasKO2) (antibody, V domains shown, also called dsTrastuKO variant 2; Variant2 (TrasKO2) with VH44C/VL100C disulfide) VH: EVQLVESGGGLVQPGGSLRLSCAASGFNIKDTYIHWVRQAPGKCLEWVAEIYPTNGYTEYADSVKGRFTISADTSKNTAYLQMNSLRAEDTAVYYCSRWGGDGFYAMDYWGQGTLVTVSS VL: not shown | 
 | no binding (tested: 100 nM) | dsTrasKO variant 3 (dsTrasKO3) (antibody, V domains shown, also called dsTrastuKO variant 3; Variant3 (TrasKO3) with VH44C/VL100C disulfide) VH: EVQLVESGGGLVQPGGSLRLSCAASGFNIKDTAIHWVRQAPGKCLEWVARIYPTNGYTRYADSVKGRFTISADTSKNTAYLQMNSLRAEDTAVYYCSRWGGDGFAAMDYWGQGTLVTVSS VL: not shown | 

Source: patent US20230391888A1 (Sanofi, published 2023)
